The text below walks through data of PMC11741385 (bioRxiv, 2025).

This data set deals with the molecule itself. Put plainly: cryo-EM structure.

B1: Candida albicans Pra1 (recombinant, full-length excluding the signal peptide) (natural protein, UniProt P87020 16-299, looked up)
chain: APVTVTRFVDASPTGYDWRADWVKGFPIDSSCNATQYNQLSTGLQEAQLLAEHARDHTLRFGSKSPFFRKYFGNETASAEVVGHFDNVVGADKSSILFLCDDLDDKCKNDGWAGYWRGSNHSDQTIICDLSFVTRRYLTQLCSSGYTVSKSKTNIFWAGDLLHRFWHLKSIGQLVIEHYADTYEEVLELAQENSTYAVRNSNSLIYYALDVYAYDVTIPGEGCNGDGTSYKKSDFSSFEDSDSGSDSGASSTASSSHQHTDSNPSATTDANSHCHTHADGEVHC
modifications: N-linked glycosylation at Asn48, Asn89, Asn135 and Asn208; three intramolecular disulphide bonds
With B1, the “stoichiometry N” value came out at 6.
